Data as given in US6855515B1, “Autoantigenic fragments, methods and assays” (Merck & Co., Inc., priority 1998, dated 2005).

B1: PMS1: autoantigen (protein)
chain: MKQLPAATVRLLSSSQIITSVVSVVKELIENSLDAGATSVDVKLENYGFDKIEVRDNGEGIKAVDAPVMAMKYYTSKINSHEDLENLTTYGFRGEALGSICCIAEVLITTRTAADNFSTQYVLDGSGHILSQKPSHLGQGTTVTALRLFKNLPVRKQFYSTAKKCKDEIKKIQDLLMSFGILKPDLRIVFVHNKAVIWQKSRVSDHKMALMSVLGTAVMNNMESFQYHSEESQIYLSGFLPKCDADHSFTSLSTPERSFIFINSRPVHQKDILKLIRHHYNLKCLKESTRLYPVFFLKIDVPTADVDVNLTPDKSQVLLQNKESVLIALENLMTTCYGPLPSTNSYENNKTDVSAADIVLSKTAETDVLFNKVESSGKNYSNVDTSVIPFQNDMHNDESGKNTDDCLNHQISIGDFGYGHCSSEISNIDKNTKNAFQDISMSNVSWENSQTEYSKTCFISSVKHTQSENGNKDHIDESGENEEEAGLENSSEISADEWSRGNILKNSVGENIEPVKILVPEKSLPCKVSNNNYPIPEQMNLNEDSCNKKSNVIDNKSGKVTAYDLLSNRVIKKPMSASALFVQDHRPQFLIENPKTSLEDATLQIEELWKTLSEEEKLKYEEKATKDLERYNSQMKRAIEQESQMSLKDGRKKIKPTSAWNLAQKHKLKTSLSNQPKLDELLQSQIEKRRSQNIKMVQIPFSMKNLKINFKKQNKVDLEEKDEPCLIHNLRFPDAWLMTSKTEVMLLNPYRVEEALLFKRLLENHKLPAEPLEKPIMLTESLFNGSHYLDVLYKMTADDQRYSGSTYLSDPRLTANGFKIKLIPGVSITENYLEIEGMANCLPFYGVADLKEILNAILNRNAKEVYECRPRKVISYLEGEAVRLSRQLPMYLSKEDIQDIIYRMKHQFGNEIKECVHGRPFFHHLTYLPETT
B2: SRP-72: autoantigen (protein)
chain: ASGGSGGVSVPALWSEVNRYGQNGDFTRALKTVNKILQINKDDVTALHCKVVCLIQNGSFKEALNVINTHTKVLANNSLSFEKAYCEYRLNRIENALKTIESANQQTDKLKELYGQVLYRLERYDECLAVYRDLVRNSQDDYDEERKTNLSAVVAAQSNWEKVVPENLGLQEGTHELCYNTACALIGQGQLNQAMKILQKAEDLCRRSLSEDTDGTEEDPQAELAIIHGQMAYILQLQGRTEEALQLYNQIIKLKPTDVGLLAVIANNIITINKDQNVFDSKKKVKLTNAEGVEFKLSKKQLQAIEFNKALLAMYTNQAEQCRKISASLQSQSPEHLLPVLIQAAQLCREKQHTKAIELLQEFSDQHPENAAEIKLTMAQLKISQGNISKACLILRSIEELKHKPGMVSALVTMYSHEEDIDSAIEVFTQAIQWYQNHQPKSPAHLSLIREAANFKLKYGRKKEAISDLQQLWKQNPKDIHTLAQLISAYSLVDPEKAKALSKHLPSSDSMSLKVDVEALENSAGATYIRKKGGKVTGDSQPKEQGQGDLKKKKKKKKGKLPKNYDPKVTPDPERWLPMRERSYYRGRKKGKKKDQIGKGTQGATAGASSELDASKTVSSPPTSPRPGSAATVSASTSNIIPPRHQKPAGAPATKKKQQQKKKKGGKGGW
B3: threonyl tRNA synthetase: autoantigen in autoimmune myositis (protein)
chain: MFEEKASSPSGKMGGEEKPIGAGEEKQKEGGKKKNKEGSGDGGRAELNPWPEYIYTRLEMYNILKAEHDSILAEKAEKDSKPIKVTLPDGKQVDAESWKTTPYQIACGISQGLADNTVIAKVNNVVWDLDRPLEEDCTLELLKFEDEEAQAVYWHSSAHIMGEAMERVYGGCLCYGPPIENGFYYDMYLEEGGVSSNDFSSLEALCKKIIKEKQAFERLEVKKETLLAMFKYNKFKCRILNEKVNTPTTTVYRCGPLIDLCRGPHVRHTGKIKALKIHKNSSTYWEGKADMETLQRIYGISFPDPKMLKEWEKFQEEAKNRDHRKIGRDQELYFFHELSPGSCFFLPKGAYIYNALIEFIRSEYRKRGFQEVVTPNIFNSRLWMTSGHWQHYSENMFSFEVEKELFALKPMNCPGHCLMFDHRPRSWRELPLRLADFGVLHRNELSGALTGLTRVRRFQQDDAHIFCAMEQIEDEIKGCLDFLRTVYSVFGFSFKLNLSTRPEKFLGDIEVWDQAEKQLENSLNEFGEKWELNSGDGAFYGPKIDIQIKDAIGRYHQCATIQLDFQLPIRFNLTYVSHDGDDKKRPVIVHRAILGSVERMIAILTENYGGKWPFWLSPRQVMVVPVGPTCDEYAQKVRQQFHDAKFMADIDLDPGCTLNKKIRNAQLAQYNFILVVGEKEKISGTVNIRTRDNKVHGERTISETIERLQQLKEFRSKQAEEEF
B4: Caspase-7: precursor of caspase-7 used as substrate for granzyme B (protein, UniProt P55210 2-303, looked up)
pro-form: ADDQGCIEEQGVEDSANEDSVDAKPDRSSFVPSLFSKKKKNVTMRSIKTTRDRVPTYQYNMNFEKLGKCIIINNKNFDKVTGMGVRNGTDKDAEALFKCFRSLGFDVIVYNDCSCAKMQDLLKKASEEDHTNAACFACILLSHGEENVIYGKDGVTPIKDLTAHFRGDRCKTLLEKPKLFFIQACRGTELDDGIQADSGPINDTDANPRYKIPVEADFLFAYSTVPGYYSWRSPGRGSWFVQALCSILEEHGKDLEIMQILTRVNDRVARHFESQSDDPHFHEKKQIPCVVSMLTKELYFSQ
modifications: pro-form
notes: precursor of caspase-7 used as substrate for granzyme B
B5: glycyl tRNA synthetase: autoantigen in autoimmune myositis (protein)
chain: MDGAGAEEVLAPLRLAVRQQGDLVRKLKEDKAPQVDVDKAVAELKARKRVLEAKELALQPKDDIVDRAKMEDTLKRRFFYDQAFAIYGGVSGLYDFGPVGCALKNNIIQTWRQHFIQEEQILEIDCTMLTPEPVLKTSGHVDKFADFMVKDVKNGECFRADHLLKAHLQKLMSDKKCSVEKKSEMESVLAQLDNYGQQELADLFVNYNVKSPITGNDLSPPVSFNLMFKTFIGPGGNMPGYLRPETAQGIFLNFKRLLEFNQGKLPFAAAQIGNSFRNEISPRSGLIRVREFTMAEIEHFVDPSEKDHPKFQNVADLHLYLYSAKAQVSGQSARKMRLGDAVEQGVINNTVLGYFIGRIYLYLTKVGISPDKLRFRQHMENEMAHYACDCWDAESKTSYGWIEIVGCADRSCYDLSCHARATKVPLVAEKPLKEPKTVNVVQFEPSKGAIGKAYKKDAKLVMEYLAICDECYITEMEMLLNEKGEFTIETEGKTFQLTKDMINVKRFQKTLYVEEVVPNVIEPSFGLGRIMYTVFEHTFHVREGDEQRTFFSFPAVVAPFKCSVLPLSQNQEFMPFVKELSEALTRHGVSHKVDDSSGSIGRRYARTDEIGVAFGVTIDFDTVNKTPHTATLRDRDSMRQIRAEISELPSIVQDLANGNITWADVEARYPLFEGQETGKKETIEE

Legend:
Type in all cases: biochemical
[1] = target: caspase-8 (Homo sapiens, UniProt Q14790); experiment: Cleavage of substrates by purified caspase-8; conditions: 50 nM purified caspase-8; HeLa lysates treated with iodoacetamide, or radiolabeled IvTT substrate
Experimental: To confirm that these substrates were not cleaved by group III caspases, the substrates were incubated with 50 nM purified caspase-8. Cleavage assays were performed in HeLa cell lysates in which endogenous caspases had first been irreversibly inactivated by 1 mM iodoacetamide (4° C. for 15 min), prior to addition of 5 mM DTT to facilitate exogenous caspase-8 activity. No cleavage of topoisomerase-1, Mi-2, U1-70 kDa, PARP, Ku-70, RNA polymerase II large subunit, SRP-72, NuMA or Ki-67 occurred. Caspase-8 was indeed active in these lysates, as evidenced by robust caspase-3 cleavage products of PARP and U1-70 kDa seen when the IAA ‘poisoning’ step was omitted. Radiolabeled PMS1 and PMS2 (generated by IvTT) were also not cleaved by purified caspase-8.

[2] = target: T1, granzyme B (Homo sapiens, UniProt P10144); experiment: Susceptibility of autoantigens to cleavage by purified granzyme B (HeLa lysate immunoblot or immunoprecipitates); conditions: in vitro
T1 construct: Some of these preparations were used for the further purification of granzyme B (Tschopp, 1994); endogenous in cells; host or cells: YT cells (human NK cell line), cytoplasmic granules
Experimental: To determine whether susceptibility to direct cleavage by granzyme B was an isolated feature of PARP, NuMA and DNA-PKcs shown above, or whether it was a more general feature of autoantigens, a variety of well-defined autoantigens selected from across the spectrum of systemic autoimmune diseases were tested for susceptibility to cleavage by purified granzyume B. The efficiency of cleavage of the substrates by purified granzyme B was also noted (Table 3). Initially, a series of autoantibodies of well-defined specificity were used to immunoblot lysates of HeLa cells that had been incubated in vitro with or without granzyme B. Lysates were pre-treated with iodoacetamide (IAA) to prevent interference by endogenous caspase activity.
To perform these studies, HeLa cells were radiolabeled with [^35S] methionine/cysteine, and proteins were immunoprecipitated using human autoantibodies. Protein A-agarose beads containing washed precipitated proteins were resuspended in buffer supporting the activity of granzyme B, and incubated in the absence or presence of added purified granzyme B. Reaction products were visualized using SDS-PAGE and fluorography. To confirm the validity of this approach, several different autoantigens known to be cleaved by granzyme B, as well as several autoantigens and non-autoantigens that are not cleaved by granzyme B, were tested. Using autoantibodies that both immunoblot and immunprecipitate, the cleavage profiles obtained using granzyme B to cleave molecules in lysates (followed by detection with immunoblotting), and after immunoprecipitation (from [^35S]methionine-labeled HeLa lysate) were compared. Identical results were obtained using these 2 methods for cleaved autoantigens (topoisomerase-1, Mi-2, RNA polymerase II large subunit, Ku-70, PARP, and NOR-90), uncleaved autoantigens (Ku-80, Ro 60k), and control substrates (β-tubulin, vinculin). […] Of note, all these additional autoantigens (with the exception of RNA polymerase I) are targeted in autoimmune myositis. However, two other tRNA synthetases (threonyl tRNA synthetase and glycyl tRNA synthetase) that are also autoantigens in autoimmune myositis, were not cleaved using this approach.

[3] = target: T1, granzyme B; experiment: In vitro cleavage of substrates by purified granzyme B, kcat/Km from densitometry; conditions: ratio of kcat/Km
Experimental: cDNAs for caspase-3, caspase-7, NuMA and PARP were used to drive the synthesis of [^35S]methionine-labeled proteins by coupled transcription/translation in rabbit reticulocyte lysates. For all purified substrates, cleavage reactions were performed in buffer consisting of 50 mM Hepes pH 7.4, 10% sucrose and 5 mM DTT in the presence of the granzyme B concentrations indicated in FIG. 1. After incubation at 37° C. for 15 min, reactions were terminated and samples were electrophoresed on 10% (DNA-PKcs, NuMA), 12% (PARP) or 15% (caspases 3 and 7) SDS-polyacrylamide gels. Radiolabeled proteins and their fragments were visualized by fluorography. Intact and cleaved DNA-PKcs were visualized by immunoblotting with monoclonal antibody 18-2 (Casciola-Rosen et al., 1995).
Catalytic constant (kcat/km) values were calculated essentially as described (Casciola-Rosen et al., 1996). Briefly, subsaturating substrate concentrations were used in each in vitro reaction, and product appearance was assumed to be a first order process. […] Several appropriate densitometry systems are available, e.g. PDI Discovery System, with Quantity One Software, Protein Databases, Inc., (Huntington Station, N.Y.). kcat/Km values were calculated by fitting the dose-response data to the first order rate equation: percent substrate cleavage=100*((1^-e-((kcat*[E]/Km)*time)). […]

T1 sequence (P10144 21-247): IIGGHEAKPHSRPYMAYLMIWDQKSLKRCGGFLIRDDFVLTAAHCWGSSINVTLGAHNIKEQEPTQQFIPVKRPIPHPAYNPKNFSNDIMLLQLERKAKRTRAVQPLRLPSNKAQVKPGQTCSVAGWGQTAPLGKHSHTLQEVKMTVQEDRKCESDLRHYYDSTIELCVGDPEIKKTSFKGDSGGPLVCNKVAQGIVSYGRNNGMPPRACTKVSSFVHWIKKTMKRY
Chain of caspase-8 (Q14790 217-374 limits assumed, species assumed): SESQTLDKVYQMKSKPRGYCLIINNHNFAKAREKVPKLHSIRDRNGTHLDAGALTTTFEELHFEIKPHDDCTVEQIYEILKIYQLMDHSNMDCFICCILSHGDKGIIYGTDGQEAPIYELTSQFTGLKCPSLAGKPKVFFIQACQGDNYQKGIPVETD
Chain of caspase-8 (Q14790 385-479 limits assumed, species assumed): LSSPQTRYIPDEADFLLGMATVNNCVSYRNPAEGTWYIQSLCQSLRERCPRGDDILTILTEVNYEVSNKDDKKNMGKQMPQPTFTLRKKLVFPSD

Molecule	cleavage by caspase-8 [1]	susceptibility to cleavage by granzyme B [2]	efficiency of granzyme B cleavage relative to caspase-3 precursor [3]
B1	not cleaved	efficiently cleaved	–
B2	No cleavage	efficiently cleaved	–
B3	–	not cleaved	–
B4	–	–	approximately 6 fold
B5	–	not cleaved	–
